According to PMC4072508, “Genome-Wide Prediction and Validation of Peptides That Bind Human Prosurvival Bcl-2 Proteins” (PLoS Computational Biology, 2014):

molecular target: Bcl-xL, Q07817; assay: fluorescence polarisation, direct titration of receptor into 10 nM labelled peptide
Sequence (Q07817 1-209): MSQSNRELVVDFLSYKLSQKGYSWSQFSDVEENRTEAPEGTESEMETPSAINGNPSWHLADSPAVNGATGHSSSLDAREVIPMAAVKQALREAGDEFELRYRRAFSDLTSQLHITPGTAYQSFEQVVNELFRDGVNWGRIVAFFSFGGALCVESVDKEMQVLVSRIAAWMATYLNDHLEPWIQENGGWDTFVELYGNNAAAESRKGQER

Binder | Kd [µM]
NATHEEVVHLLRNAGDEVTITVEYLR [SNTG2] | > 4
AIILCNVCGNLCTDCDRFLHLHRRTK [MYCBP2] | > 10
RYPILENPEILRKTADDFLNRIALTD [CCNH] | > 5.72
AELRLFLAQRLRWLCDSCPASRATCV [NBEAL2] | 0.01
RYRHGAPAEQLRHLADMLTTKWATLQ [PLEKHH1] | 0.65
FVGYNSTGAELRHWSDMLANPRRPIA [SYT1] | > 6.9
QRKHEGFERDLAALGDKVNSLGETAE [SPTAN1] | > 7
LMARPAVALHFQSIADGFKEAVRYVL [SOS2] | > 6.9
LCQLSCVSKLMRDVCGSLLQSRGMVI [FBXO30] | > 10
ATKRETAATFLKKVAKEFGFQNNGFS [NPLOC4] | > 100
TRELQELARKLQELADASENLLTENT [TXNDC11] | 1.49
KSRLVQQSKALKELADELQERCQRPA [TRIM58] | 4.55
ADAIRPRCVELRHLCDDFINGNKKKW [MCF2L2] | 0.292

Molecular target: T1, Bfl-1, Q16548
T1 chain: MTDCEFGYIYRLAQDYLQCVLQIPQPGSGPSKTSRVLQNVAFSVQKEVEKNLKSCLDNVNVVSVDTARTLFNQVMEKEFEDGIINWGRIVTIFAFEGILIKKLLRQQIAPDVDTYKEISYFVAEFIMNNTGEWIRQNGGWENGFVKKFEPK
Assay: as above

Binder | Kd [µM]
NATHEEVVHLLRNAGDEVTITVEYLR [SNTG2] | > 4.07
AIILCNVCGNLCTDCDRFLHLHRRTK [MYCBP2] | > 3.37
RYPILENPEILRKTADDFLNRIALTD [CCNH] | > 9.62
AELRLFLAQRLRWLCDSCPASRATCV [NBEAL2] | 3.27
RYRHGAPAEQLRHLADMLTTKWATLQ [PLEKHH1] | > 5.68
FVGYNSTGAELRHWSDMLANPRRPIA [SYT1] | > 3.37
QRKHEGFERDLAALGDKVNSLGETAE [SPTAN1] | > 3.37
LMARPAVALHFQSIADGFKEAVRYVL [SOS2] | > 3.29
LCQLSCVSKLMRDVCGSLLQSRGMVI [FBXO30] | > 10
ATKRETAATFLKKVAKEFGFQNNGFS [NPLOC4] | > 4.67
TRELQELARKLQELADASENLLTENT [TXNDC11] | > 10
KSRLVQQSKALKELADELQERCQRPA [TRIM58] | > 4.67
ADAIRPRCVELRHLCDDFINGNKKKW [MCF2L2] | > 3.37

Molecular target: T2, Bcl-w, Q92843
T2 chain: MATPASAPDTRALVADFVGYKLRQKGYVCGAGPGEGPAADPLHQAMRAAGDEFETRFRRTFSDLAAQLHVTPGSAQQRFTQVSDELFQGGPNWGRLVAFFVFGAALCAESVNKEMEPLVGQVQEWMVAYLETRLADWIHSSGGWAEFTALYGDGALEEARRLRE
Assay: as above

Binder | Kd [nM]
NATHEEVVHLLRNAGDEVTITVEYLR [SNTG2] | > 6560
AIILCNVCGNLCTDCDRFLHLHRRTK [MYCBP2] | 4060
RYPILENPEILRKTADDFLNRIALTD [CCNH] | 1920
AELRLFLAQRLRWLCDSCPASRATCV [NBEAL2] | 29
RYRHGAPAEQLRHLADMLTTKWATLQ [PLEKHH1] | 1400
FVGYNSTGAELRHWSDMLANPRRPIA [SYT1] | > 4350
QRKHEGFERDLAALGDKVNSLGETAE [SPTAN1] | > 4350
LMARPAVALHFQSIADGFKEAVRYVL [SOS2] | 5380
LCQLSCVSKLMRDVCGSLLQSRGMVI [FBXO30] | 3280
ATKRETAATFLKKVAKEFGFQNNGFS [NPLOC4] | > 4500
TRELQELARKLQELADASENLLTENT [TXNDC11] | 249
KSRLVQQSKALKELADELQERCQRPA [TRIM58] | 361
ADAIRPRCVELRHLCDDFINGNKKKW [MCF2L2] | 1120

Molecular target: T3, Bcl-2, P10415
T3 chain: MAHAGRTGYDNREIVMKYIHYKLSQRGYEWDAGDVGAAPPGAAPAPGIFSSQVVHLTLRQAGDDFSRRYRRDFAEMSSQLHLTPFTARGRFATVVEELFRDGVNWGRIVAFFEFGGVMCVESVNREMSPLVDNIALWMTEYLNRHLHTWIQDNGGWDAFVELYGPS
Assay: as above

Binder | Kd [nM]
NATHEEVVHLLRNAGDEVTITVEYLR [SNTG2] | > 3040
AIILCNVCGNLCTDCDRFLHLHRRTK [MYCBP2] | 1180
RYPILENPEILRKTADDFLNRIALTD [CCNH] | 7130
AELRLFLAQRLRWLCDSCPASRATCV [NBEAL2] | 16
RYRHGAPAEQLRHLADMLTTKWATLQ [PLEKHH1] | 1500
FVGYNSTGAELRHWSDMLANPRRPIA [SYT1] | > 100000
QRKHEGFERDLAALGDKVNSLGETAE [SPTAN1] | > 3040
LMARPAVALHFQSIADGFKEAVRYVL [SOS2] | 3290
LCQLSCVSKLMRDVCGSLLQSRGMVI [FBXO30] | 2560
ATKRETAATFLKKVAKEFGFQNNGFS [NPLOC4] | 2060
TRELQELARKLQELADASENLLTENT [TXNDC11] | 86
KSRLVQQSKALKELADELQERCQRPA [TRIM58] | 975
ADAIRPRCVELRHLCDDFINGNKKKW [MCF2L2] | 60

Molecular target: T4, Mcl-1, Q07820
T4 chain: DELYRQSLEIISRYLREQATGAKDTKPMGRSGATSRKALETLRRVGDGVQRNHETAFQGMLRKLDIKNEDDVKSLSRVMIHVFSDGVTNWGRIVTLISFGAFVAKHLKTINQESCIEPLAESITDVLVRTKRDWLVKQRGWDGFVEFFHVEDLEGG
Assay: as above

Binder | Kd [µM]
NATHEEVVHLLRNAGDEVTITVEYLR [SNTG2] | 0.022
AIILCNVCGNLCTDCDRFLHLHRRTK [MYCBP2] | > 10
RYPILENPEILRKTADDFLNRIALTD [CCNH] | > 4
AELRLFLAQRLRWLCDSCPASRATCV [NBEAL2] | 3.81
RYRHGAPAEQLRHLADMLTTKWATLQ [PLEKHH1] | 0.977
FVGYNSTGAELRHWSDMLANPRRPIA [SYT1] | > 4
QRKHEGFERDLAALGDKVNSLGETAE [SPTAN1] | 3.85
LMARPAVALHFQSIADGFKEAVRYVL [SOS2] | > 4
LCQLSCVSKLMRDVCGSLLQSRGMVI [FBXO30] | > 10
ATKRETAATFLKKVAKEFGFQNNGFS [NPLOC4] | > 4
TRELQELARKLQELADASENLLTENT [TXNDC11] | 2.38
KSRLVQQSKALKELADELQERCQRPA [TRIM58] | > 6.07
ADAIRPRCVELRHLCDDFINGNKKKW [MCF2L2] | > 4

molecular target: Bcl-xL, Q07817; assay: peptide SPOT array, c-Myc-tagged receptor at 1 uM or 100 nM, anti-c-Myc-Cy3

Binder | SPOT signal as a fraction of Bim BH3's signal on the same receptor and array
NATHEEVVHLLRNAGDEVTITVEYLR [SNTG2] | 0.04
AIILCNVCGNLCTDCDRFLHLHRRTK [MYCBP2] | 0.8
RYPILENPEILRKTADDFLNRIALTD [CCNH] | 0.06
AELRLFLAQRLRWLCDSCPASRATCV [NBEAL2] | 1.24
RYRHGAPAEQLRHLADMLTTKWATLQ [PLEKHH1] | 1.44
FVGYNSTGAELRHWSDMLANPRRPIA [SYT1] | 1.41
QRKHEGFERDLAALGDKVNSLGETAE [SPTAN1] | 0.12
LMARPAVALHFQSIADGFKEAVRYVL [SOS2] | 0.85
LCQLSCVSKLMRDVCGSLLQSRGMVI [FBXO30] | 0.62
ATKRETAATFLKKVAKEFGFQNNGFS [NPLOC4] | 0.73
TRELQELARKLQELADASENLLTENT [TXNDC11] | 0.04
KSRLVQQSKALKELADELQERCQRPA [TRIM58] | 0.29
ADAIRPRCVELRHLCDDFINGNKKKW [MCF2L2] | 1.38

Molecular target: T1, Bfl-1, Q16548
Assay: as above

Binder | SPOT signal as a fraction of Bim BH3's signal on the same receptor and array
NATHEEVVHLLRNAGDEVTITVEYLR [SNTG2] | 0.01
AIILCNVCGNLCTDCDRFLHLHRRTK [MYCBP2] | 0.54
RYPILENPEILRKTADDFLNRIALTD [CCNH] | 0.02
AELRLFLAQRLRWLCDSCPASRATCV [NBEAL2] | 0.46
RYRHGAPAEQLRHLADMLTTKWATLQ [PLEKHH1] | 0.56
FVGYNSTGAELRHWSDMLANPRRPIA [SYT1] | 0.37
QRKHEGFERDLAALGDKVNSLGETAE [SPTAN1] | 0.13
LMARPAVALHFQSIADGFKEAVRYVL [SOS2] | 0.43
LCQLSCVSKLMRDVCGSLLQSRGMVI [FBXO30] | 0.31
ATKRETAATFLKKVAKEFGFQNNGFS [NPLOC4] | 0.41
TRELQELARKLQELADASENLLTENT [TXNDC11] | 0.01
KSRLVQQSKALKELADELQERCQRPA [TRIM58] | 0.11
ADAIRPRCVELRHLCDDFINGNKKKW [MCF2L2] | 0.29

Molecular target: T2, Bcl-w, Q92843
Assay: as above

Binder | SPOT signal as a fraction of Bim BH3's signal on the same receptor and array
NATHEEVVHLLRNAGDEVTITVEYLR [SNTG2] | 0.02
RYPILENPEILRKTADDFLNRIALTD [CCNH] | 0.24
RYRHGAPAEQLRHLADMLTTKWATLQ [PLEKHH1] | 0.81
ATKRETAATFLKKVAKEFGFQNNGFS [NPLOC4] | 0.77
TRELQELARKLQELADASENLLTENT [TXNDC11] | 0.27
KSRLVQQSKALKELADELQERCQRPA [TRIM58] | 0.29

molecular target: Bcl-2, P10415; assay: as above
Target sequence in this assay (P10415 1-217): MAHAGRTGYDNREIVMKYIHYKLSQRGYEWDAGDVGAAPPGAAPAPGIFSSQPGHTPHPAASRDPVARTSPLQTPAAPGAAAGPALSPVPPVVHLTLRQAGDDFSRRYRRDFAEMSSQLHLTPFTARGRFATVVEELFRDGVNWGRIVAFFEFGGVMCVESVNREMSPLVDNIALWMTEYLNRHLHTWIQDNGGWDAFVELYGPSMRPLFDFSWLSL

Binder | SPOT signal as a fraction of Bim BH3's signal on the same receptor and array
NATHEEVVHLLRNAGDEVTITVEYLR [SNTG2] | 0.01
RYPILENPEILRKTADDFLNRIALTD [CCNH] | 0.04
RYRHGAPAEQLRHLADMLTTKWATLQ [PLEKHH1] | 0.28
ATKRETAATFLKKVAKEFGFQNNGFS [NPLOC4] | 0.25
TRELQELARKLQELADASENLLTENT [TXNDC11] | 0.01
KSRLVQQSKALKELADELQERCQRPA [TRIM58] | 0.06

Molecular target: T4, Mcl-1, Q07820
Assay: as above

Binder | SPOT signal as a fraction of Bim BH3's signal on the same receptor and array
NATHEEVVHLLRNAGDEVTITVEYLR [SNTG2] | 0.09
AIILCNVCGNLCTDCDRFLHLHRRTK [MYCBP2] | 0.29
RYPILENPEILRKTADDFLNRIALTD [CCNH] | 0.02
AELRLFLAQRLRWLCDSCPASRATCV [NBEAL2] | 1.01
RYRHGAPAEQLRHLADMLTTKWATLQ [PLEKHH1] | 0.41
FVGYNSTGAELRHWSDMLANPRRPIA [SYT1] | 0.32
QRKHEGFERDLAALGDKVNSLGETAE [SPTAN1] | 0.27
LMARPAVALHFQSIADGFKEAVRYVL [SOS2] | 1.08
LCQLSCVSKLMRDVCGSLLQSRGMVI [FBXO30] | 0.28
ATKRETAATFLKKVAKEFGFQNNGFS [NPLOC4] | 0.23
TRELQELARKLQELADASENLLTENT [TXNDC11] | 0.01
KSRLVQQSKALKELADELQERCQRPA [TRIM58] | 0.05
ADAIRPRCVELRHLCDDFINGNKKKW [MCF2L2] | 0.22
